Consider one molecule from patent US20260027179A1 (UNIVERSITY OF BRITISH COLUMBIA, published 2026).

This assay addresses T1, Purified recombinant human α-synuclein (N-terminal histidine tagged, Sigma, S7820-500UG) (human, UniProt P37840 1-140).
T1 construct: also called immobilized α-synuclein; not shown: N-terminal histidine tag
The experiment in a line: Biacore 3000 SPR, α-synuclein immobilized on CM5 chip, peptide 0.20-12.50 µM injected.

B1: Tat-βsyn-degron peptide (peptide)
peptide: YGRKKRRQRRRRTKSGVYLVGRRRG
notes: Chemically synthesized by GL Biochem; also called α-synuclein targeting peptide
In the case of B1, the binding result is recorded as “binds”.
